Measured values: paper PMC5969528
Like-named read-outs stand apart in the source and are kept apart here.

What was measured:
[1] = target: cytoplasmic dynein-1 heavy chain (mouse (endogenous in mouse brain)) (UniProt Q9JHU4); assay: cryo-EM structure
[2] = target: cytoplasmic dynein-1 heavy chain (mouse (endogenous in mouse brain)) (UniProt Q9JHU4); assay: cryo-EM structure; remark: listed apart in the source

Work on “cytoplasmic dynein-1 heavy chain, Q9JHU4 1-4644” yielded a stoichiometry N [1] of 2 and a stoichiometry N [2] of 2.
